Consider 4 molecules from US20130315927A1 (Novartis, published 2013).

Numbering of substitutions follows the chain as printed. Like-named read-outs stand apart in the source and are kept apart here. Bounds are passed on as bounds.

Assay [1] has as its target biotinylated PCSK9-Avi-His6 (human) (UniProt Q8NBP7). As to the kind of experiment: ForteBio Octet bio-layer interferometry, biotinylated PCSK9-Avi-His6 on streptavidin sensors, Fab in solution. On the technique in general: BLI is a label-free optical method that tracks binding on a fibre tip over time.
Assay [2] has as its target T1, recombinant human PCSK9 (aa 31-692) with C-terminal His6 tag (human, UniProt Q8NBP7 31-692).
T1 construct: range 31-692; In the TR-FRET assay it carried a fluorophore (hPcsk9-AF); also called hPcsk9; hPCSK9
Description: solution equilibrium titration (SET): soluble human PCSK9 titrated against 100 pM antibody, free antibody captured on a Pcsk9-coated MSD plate; the concentration is that of human PCSK9.
Description: Briefly, serial dilutions of human, cyno, mouse, or rat Pcsk9 were prepared, and anti-Pcsk9 Ab was added to each antigen concentration to reach a constant antibody concentration of 100 pM. 100 μL/well of each dilution mix was distributed in duplicate to a 96-well polypropylene microtiter plate (Greiner). The plate was sealed and incubated over night at room temperature. A 96-well Standard Bind microtiter plate (Meso Scale Discovery) was coated with 25 μL of 1 μg/mL Pcsk9 diluted in PBS. This plate was sealed and incubated overnight at 4° C. After the incubation the antigen-coated Standard Bind micro titer plate was washed three times with 200 μL per well PBS/0.05% (w/v) Tween 20. Subsequently, the plate was blocked with 150 μL/well PBS/5% (w/v) BSA and incubated for one hour at room temperature with shaking. The washing steps were repeated and 25 μL/well of the antibody-antigen preparation from the polypropylene microtiter plate was transferred into the antigen-coated Standard Bind plate. The Standard Bind plate was incubated for 60 min at room temperature with shaking. […] Electrochemiluminescence signals were generated and detected by a Sector Imager 6000 (Meso Scale Discovery).

The target of assay [3] is T1, recombinant human PCSK9 (aa 31-692) …. Description: TR-FRET competition, hPcsk9-AF (8 nM) and hLDL-R-Eu (1 nM). An excerpt: Data are representative of at least two independent experiments.
Background: Time-resolved FRET reads energy transfer from a long-lived donor to a nearby acceptor.

Assay [4] has as its target T2, hFgfr4 hFc (human, UniProt P22455).
T2 sequence (fusion chain, looked up): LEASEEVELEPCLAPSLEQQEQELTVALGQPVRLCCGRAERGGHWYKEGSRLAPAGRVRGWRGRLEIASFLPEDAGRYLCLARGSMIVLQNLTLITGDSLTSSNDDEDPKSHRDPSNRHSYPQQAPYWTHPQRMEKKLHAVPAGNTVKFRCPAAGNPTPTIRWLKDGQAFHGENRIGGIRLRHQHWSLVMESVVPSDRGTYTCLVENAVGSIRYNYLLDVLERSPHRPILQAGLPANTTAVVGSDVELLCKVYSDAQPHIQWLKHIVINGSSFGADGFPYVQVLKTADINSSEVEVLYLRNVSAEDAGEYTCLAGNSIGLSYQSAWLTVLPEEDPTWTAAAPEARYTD
Description: specificity ELISA, antigen coated at 88 ng per well, absorbance 650 nm. A general note: In an ELISA, binding on a coated surface is turned into a signal by an enzyme label.
Description: (§1) For specificity ELISAs on purified human and mouse IgGs, a 384-well plate was coated with a panel of purified human or mouse antigens at 88 ng per well and incubated overnight at 4° C. The plate was blocked and washed as described above, then 22 μL of purified mouse or human anti-PCSK9 antibody diluted to 2 μg/mL in PBS was added to each well. The plate was incubated for 1 hr at 37° C. then washed with PBST. […] The plate was incubated for 1 hr at room temperature, then washed and developed as described above.

Assay [5] has as its target T1, recombinant human PCSK9 (aa 31-692) …. As to the kind of experiment: cell-based or functional assay.
For assay [6] the target is unchanged. As to the kind of experiment: solution equilibrium titration (SET), MSD electrochemiluminescence read-out.
Description: The binding kinetics of the final selected candidates were analyzed using a Solution Equilibrium Titration (“SET”) assay. Briefly, serial dilutions of human, cyno, mouse, or rat Pcsk9 were prepared, and anti-Pcsk9 Ab was added to each antigen concentration to reach a constant antibody concentration of 100 pM. 100 μL/well of each dilution mix was distributed in duplicate to a 96-well polypropylene microtiter plate (Greiner). The plate was sealed and incubated over night at room temperature. A 96-well Standard Bind microtiter plate (Meso Scale Discovery) was coated with 25 μL of 1 μg/mL Pcsk9 diluted in PBS. This plate was sealed and incubated overnight at 4° C. After the incubation the antigen-coated Standard Bind micro titer plate was washed three times with 200 μL per well PBS/0.05% (w/v) Tween 20. Subsequently, the plate was blocked with 150 μL/well PBS/5% (w/v) BSA and incubated for one hour at room temperature with shaking. The washing steps were repeated and 25 μL/well of the antibody-antigen preparation from the polypropylene microtiter plate was transferred into the antigen-coated Standard Bind plate. The Standard Bind plate was incubated for 60 min at room temperature with shaking. […] Electrochemiluminescence signals were generated and detected by a Sector Imager 6000 (Meso Scale Discovery).
In assay [7] the target is T3, cynomolgus macaque PCSK9 with C-terminal his6 tag (cynomolgus monkey).
T3 chain: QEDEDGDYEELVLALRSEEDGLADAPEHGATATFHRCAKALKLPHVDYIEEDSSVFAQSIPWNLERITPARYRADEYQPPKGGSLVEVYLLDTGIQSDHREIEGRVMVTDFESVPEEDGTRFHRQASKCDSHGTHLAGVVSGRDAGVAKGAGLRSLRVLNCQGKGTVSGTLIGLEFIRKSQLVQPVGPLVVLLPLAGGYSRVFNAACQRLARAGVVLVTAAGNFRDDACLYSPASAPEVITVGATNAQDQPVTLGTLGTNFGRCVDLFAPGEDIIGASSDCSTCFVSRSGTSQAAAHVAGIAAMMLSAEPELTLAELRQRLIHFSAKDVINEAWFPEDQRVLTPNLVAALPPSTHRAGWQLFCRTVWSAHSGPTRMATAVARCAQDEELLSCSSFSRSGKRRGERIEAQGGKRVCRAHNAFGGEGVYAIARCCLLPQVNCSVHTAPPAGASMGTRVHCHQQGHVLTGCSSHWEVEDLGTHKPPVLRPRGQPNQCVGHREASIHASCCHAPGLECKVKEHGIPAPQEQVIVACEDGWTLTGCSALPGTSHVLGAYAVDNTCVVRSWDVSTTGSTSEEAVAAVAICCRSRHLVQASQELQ
Description: solution equilibrium titration (SET), fit by the model of Piehler et al.
Description: (§2) The binding kinetics of the final selected candidates were analyzed using a Solution Equilibrium Titration (“SET”) assay. Briefly, serial dilutions of human, cyno, mouse, or rat Pcsk9 were prepared, and anti-Pcsk9 Ab was added to each antigen concentration to reach a constant antibody concentration of 100 pM. 100 μL/well of each dilution mix was distributed in duplicate to a 96-well polypropylene microtiter plate (Greiner). The plate was sealed and incubated over night at room temperature. A 96-well Standard Bind microtiter plate (Meso Scale Discovery) was coated with 25 μL of 1 μg/mL Pcsk9 diluted in PBS. This plate was sealed and incubated overnight at 4° C. After the incubation the antigen-coated Standard Bind micro titer plate was washed three times with 200 μL per well PBS/0.05% (w/v) Tween 20. Subsequently, the plate was blocked with 150 μL/well PBS/5% (w/v) BSA and incubated for one hour at room temperature with shaking. The washing steps were repeated and 25 μL/well of the antibody-antigen preparation from the polypropylene microtiter plate was transferred into the antigen-coated Standard Bind plate. The Standard Bind plate was incubated for 60 min at room temperature with shaking. After three additional washing steps, 25 μL of 1 μg/mL Sulfo-Tag-labeled goat anti-human-detection antibody (R32AJ-5, Meso Scale Discovery) diluted in PBS/1% (w/v) BSA/0.05% (w/v) Tween 20, buffer were added to each well and incubated one hour at room temperature with shaking. […] Electrochemiluminescence signals were generated and detected by a Sector Imager 6000 (Meso Scale Discovery).

For another assay, the target named is Rat (Pcsk9 homolog) (rat, UniProt P59996). The assay is described as above.
A further assay addresses T4, murine PCSK9 (mouse, UniProt Q80W65 35-694, limits assumed).
T4 construct: also called mouse Pcsk9
The assay is described as above.

For assay [8], the target named is T2, hFgfr4 hFc. As to the kind of experiment: specificity ELISA, antigen coated at 88 ng per well, absorbance 650 nm. The source holds these as a separate data set.
Description: as §1
Another assay addresses T5, HIS tag.
T5 construct: also called his6 tag; 6-His
T5 peptide: HHHHHH
Description: ELISA.

Assay [9] deals with T1, recombinant human PCSK9 (aa 31-692) …. Description: cell-based or functional assay. This is another data set of the same source.
Assay [10] has the same target. Description: TR-FRET competition, labelled hPcsk9 (8 nM) and labelled hLDL-R (1 nM); MAB1 antibody as competitor.
Description: The percentage inhibition was calculated with the following formula: 100−[(normalized value of treated sample/averaged normalized value of untreated samples)×100]. The percentage inhibition dose response curves were plotted using Prism version 5 with the formula, Y=Bottom+(Top−Bottom)/(1+10̂((LogIC50−X)*HillSlope)) (GraphPad Prism Software).
Assay [11] shares this target. Description: solution equilibrium titration (SET), MSD electrochemiluminescence read-out. The source holds these as a separate data set.
Description: Serial dilutions of Pcsk9 were prepared, and antibodies were added to each antigen concentration to reach a constant antibody concentration of 100 pM. 100 μL/well of each dilution mix was distributed in duplicate to a 96-well polypropylene microtiter plate (Greiner). The plate was sealed and incubated over night at room temperature. A 96-well Standard Bind microtiter plate (Meso Scale Discovery) was coated with 25 μL of 1 μg/mL Pcsk9 diluted in PBS. This plate was sealed and incubated over night at 4° C. After the incubation the antigen-coated Standard Bind micro titer plate was washed three times with 200 [L per well PBS/0.05% (w/v) Tween 20. Subsequently, the plate was blocked with 150 μL/well PBS/5% (w/v) BSA and incubated for one hour at room temperature with shaking. The washing steps were repeated and 25 μL/well of the antibody-antigen preparation from the polypropylene microtiter plate was transferred into the antigen-coated Standard Bind plate. The Standard Bind plate was incubated for 60 min at room temperature with shaking. […] Electrochemiluminescence signals were generated and detected by a Sector Imager 6000 (Meso Scale Discovery). […]

T4 sequence (Q80W65 other isoform, or with tags, fused parts or gaps limits assumed): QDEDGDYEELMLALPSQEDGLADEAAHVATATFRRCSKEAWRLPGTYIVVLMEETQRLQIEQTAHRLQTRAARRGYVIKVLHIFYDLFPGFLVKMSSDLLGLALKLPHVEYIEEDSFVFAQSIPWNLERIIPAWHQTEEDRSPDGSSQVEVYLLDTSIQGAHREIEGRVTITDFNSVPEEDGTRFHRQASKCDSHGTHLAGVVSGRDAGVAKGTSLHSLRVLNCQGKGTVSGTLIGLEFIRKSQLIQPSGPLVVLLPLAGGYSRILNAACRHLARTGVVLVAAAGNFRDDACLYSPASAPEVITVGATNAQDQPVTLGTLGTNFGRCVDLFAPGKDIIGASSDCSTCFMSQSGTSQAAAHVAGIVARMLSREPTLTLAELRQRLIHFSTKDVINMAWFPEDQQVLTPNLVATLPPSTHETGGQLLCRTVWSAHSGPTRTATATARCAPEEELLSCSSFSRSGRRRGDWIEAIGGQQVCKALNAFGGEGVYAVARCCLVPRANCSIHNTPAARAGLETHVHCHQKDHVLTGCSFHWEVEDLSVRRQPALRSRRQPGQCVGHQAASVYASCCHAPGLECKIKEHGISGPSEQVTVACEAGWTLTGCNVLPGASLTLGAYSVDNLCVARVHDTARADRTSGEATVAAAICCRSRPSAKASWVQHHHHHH
Chain of Rat (Pcsk9 homolog) (P59996 31-691 limits assumed): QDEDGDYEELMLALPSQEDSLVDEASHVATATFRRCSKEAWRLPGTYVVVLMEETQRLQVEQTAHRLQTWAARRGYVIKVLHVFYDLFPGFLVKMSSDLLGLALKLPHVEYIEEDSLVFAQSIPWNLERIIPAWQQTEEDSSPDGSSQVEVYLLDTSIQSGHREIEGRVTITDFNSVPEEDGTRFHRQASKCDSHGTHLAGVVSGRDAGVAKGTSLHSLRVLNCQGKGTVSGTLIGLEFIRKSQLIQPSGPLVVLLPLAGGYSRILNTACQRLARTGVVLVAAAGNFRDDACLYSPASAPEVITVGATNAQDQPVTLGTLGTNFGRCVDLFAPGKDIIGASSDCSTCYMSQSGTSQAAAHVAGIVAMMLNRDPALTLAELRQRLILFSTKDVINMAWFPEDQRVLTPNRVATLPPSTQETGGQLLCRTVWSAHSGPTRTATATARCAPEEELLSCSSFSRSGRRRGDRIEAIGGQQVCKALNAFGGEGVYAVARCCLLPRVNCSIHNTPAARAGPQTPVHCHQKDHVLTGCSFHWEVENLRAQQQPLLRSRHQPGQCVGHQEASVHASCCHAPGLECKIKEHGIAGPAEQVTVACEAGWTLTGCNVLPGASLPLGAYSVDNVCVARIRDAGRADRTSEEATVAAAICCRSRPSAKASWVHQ
Description for Rat (Pcsk9 homolog): as §2
Description for murine PCSK9: as §2

B1: fully Humaneered Fab Clone #44 (Fab, part only; not given: kappa light chain, V domains shown, part only)
VH: QITLKESGPVLVKPTETLTLTCTVSGFSLSTSGVGVGWIRQPPGKALEWLADIWWDDNKYYNPSLKSRLTISKDTSKNQVVLTMTNMDPVDTATYYCARITTEGGFAYWGQGTLVTVSS
One may read the Kd as a measure of binding affinity in units of concentration. In turn, B1 returned an equilibrium dissociation constant (Kd) in assay [1] of 22.3 nM.

B2: Humaneered antibody MAB2 (antibody, human IgG1, V domains shown)
VH: B1 VH
VL: DIQMTQSPSSLSASVGDRVTITCRAGQRISHNLHWYQQKPDESPRLLINFASRLISGVPSRFSGSGSGTDFTLTISSLQPEDFATYYCQQSNYWPLTFGQGTKLEIK
As a reminder, the IC50 is the concentration that inhibits the measured activity by half. On to B2, for which the “IC50 (read off the curve)” value in [2] is around 0.3 nM. For the same molecule, the IC50 in [3] was 20 nM. Moreover, the binding result with hFgfr4 hFc [4] is “no binding (tested: 2 µg/mL (single concentration))”. For the same molecule, in assay [5], the “EC50, LDL uptake (DiI-LDL uptake by HepG2 cells with hPCSK9, flow cytometry)” value stood at 210 nM. Besides, the “EC50, LDL-R protection (surface LDL-R on HepG2 cells, flow cytometry)” value (from here on “EC50, LDL-R protection”) in [5] was 324 nM. For the same molecule, the Kd in [6] was 0.26 nM; in [7], 0.4 nM; with Rat (Pcsk9 homolog), above 10000 nM; with murine PCSK9, above 10000 nM.

B3: Humaneered antibody MAB3 (antibody, human IgG1, V domains shown)
VH: B1 VH with I2V, V10T, E16Q, P42S
VL: B2 VL
In the case of B3, in assay [2], the “IC50 (read off the curve)” value was around 0.3 nM. For the same molecule, in the assay with hFgfr4 hFc [8], the binding result is on record as “no binding (tested: 2 µg/mL (single concentration))”. In addition, the IC50 in assay [3] was 28 nM. The “EC50, LDL uptake (DiI-LDL uptake by HepG2 cells with hPCSK9, flow cytometry)” value in [5] amounted to 168 nM. In assay [5], the “EC50, LDL-R protection” value turned out to be 300 nM. For the same molecule, the Kd in assay [6] is 0.3 nM; in assay [7], 0.4 nM; with Rat (Pcsk9 homolog), above 10000 nM; with murine PCSK9, above 10000 nM.

B4: mouse monoclonal antibody MAB1 (antibody, V domains shown)
VH: QVTLKESGPGILQPSQTLSLTCSFSGFSLSTSGMGVGWIRQPSGEGLEWLADIWWDDNKYYNPSLKSRLTVSKDTSSNQVFLKITSVDTADTATYYCALITTEGGFAYWGQGTLVTVSA
VL: DIVLTQSPATLSVTPGDSVSLSCRASQSINNNLHWYQQKSHESPRLLIKFASRSISGIPSKFSGSGSGTDFTLSINSVETEDFGMYFCQQSNYWPLTFGAGTNLELI
notes: also called parent mouse monoclonal antibody; murine anti-human Pcsk9 IgG1-kappa monoclonal antibody
For the molecule B4, the binding result with HIS tag is “no binding”. The “DiI-LDL-uptake by HepG2 cells treated with exogenous hPcsk9, EC50” value in [9] came out at 194 nM. The “EC50, LDL-R protection” value in [5] worked out at 309 nM. The IC50 in assay [10] came out at 77 nM. Also, the Kd is 0.27 nM in assay [11], 0.23 nM in assay [7] and above 10000 nM with murine PCSK9.
